Data published in patent US20220380459A1 (DRAGONFLY THERAPEUTICS, published 2022).
Changes are numbered by the printed parent chain.

B1: ADI-11828 IgG (antibody, V domains shown)
VH: EVQLVESGGGLVQPGGSLRLSCAASGFTFSSYWMSWVRQAPGKGLEWVANINQDGSEVYYVDSVKGRFTISRDNAKNSLYLQMNSLRAEDTAVYYCARDVGPGIAYQGHFDYWGQGTLVTVSS
VL: DIQMTQSPSSLSASVGDRVTITCRASQSIYYYLNWYQQKPGKAPKLLIYAASSRQSGVPSRFSGSGSGTDFTLTISSLQPEDFATYYCQQVYDTPLTFGGGTKVEIK
notes: IgG; also called Ab27
B2: ADI-11830 IgG (antibody, V domains shown)
VH: B1 VH with Q53T
VL: B1 VL with S28V, Y31S, R54L, Q55K
notes: IgG; also called Ab9
B3: ADI-10159 IgG (antibody, V domains shown)
VH: EVQLVESGGGLVQPGGSLRLSCAASGFTFSSYGMSWVRQAPGKGLEWVANIKQDGSEKYYVDSVKGRFTISRDNAKNSLYLQMNSLRAEDTAVYYCAREGGPYYDSSGYFVYYGMDVWGQGTTVTVSS
VL: DIQMTQSPSTLSASVGDRVTITCRASQSISSWLAWYQQKPGKAPKLLIYDASSLESGVPSRFSGSGSGTEFTLTISSLQPDDFATYYCQQYESFPTFGGGTKVEIK
notes: IgG; also called Ab1; G59
B4: ADI-11812 IgG (antibody, V domains shown)
VH: QVQLVQSGAEVKKPGASVKVSCKASGYTFEIYYMHWVRQAPGQGLEWMGIINPSSGSTVYAQKFQGRVTMTRDTSTSTVYMELSSLRSEDTAVYYCARGAGYDDEDMDVWGKGTTVTVSS
VL: DIQMTQSPSSVSASVGDRVTITCRASQGIDSWLAWYQQKPGKAPKLLIYAASSLQSGVPSRFSGSGSGTDFTLTISSLQPEDFATYYCQQAHSYPLTFGGGTKVEIK
notes: IgG; also called Ab24
B5: ADI-11815 IgG (antibody, V domains shown)
VH: B4 VH with E30G, I31T, S55R
VL: B4 VL
notes: IgG; also called Ab7
B6: ADI-11826 IgG (antibody, V domains shown)
VH: EVQLVESGGGLVQPGGSLRLSCAASGFTFPGYWMSWVRQAPGKGLEWVANINQDGSEVYYVDSVKGRFTISRDNAKNSLYLQMNSLRAEDTAVYYCAREANYYGNVGDDYWGQGTLVTVSS
VL: B1 VL with Y31N, R54T, V91A, Y92F, D93H, T94V, L96I
notes: IgG; also called Ab26
B7: ADI-10160 IgG (antibody, V domains shown)
VH: B6 VH with P30S, G31S, V58K
VL: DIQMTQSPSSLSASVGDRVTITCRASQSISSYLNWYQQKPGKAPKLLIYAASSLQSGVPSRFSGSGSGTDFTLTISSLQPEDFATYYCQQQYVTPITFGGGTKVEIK
notes: IgG; also called Ab15
B8: ADI-11825 IgG (antibody, V domains shown)
VH: B6 VH with P30G, V58E
VL: B1 VL with Y31N, S53N, R54L, Q55H, V91A, Y92F, D93H, T94V, L96I
notes: IgG; also called Ab25
B9: ADI-11801 IgG (antibody, V domains shown)
VH: QVQLVQSGAEVKKPGASVKVSCKASGYTFSDYYMHWVRQAPGQGLEWMGMINPSWGSTSYAQKFQGRVTMTRDTSTSTVYMELSSLRSEDTAVYYCAREAADGFVGERYFDLWGRGTLVTVSS
VL: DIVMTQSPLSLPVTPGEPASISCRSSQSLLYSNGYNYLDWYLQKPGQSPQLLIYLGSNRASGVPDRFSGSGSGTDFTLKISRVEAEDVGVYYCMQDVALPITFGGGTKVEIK
notes: IgG; also called Ab4
B10: ADI-10173 IgG (antibody, V domains shown)
VH: B9 VH with S30T, D31S, M50I, W55G, S59T
VL: not shown
notes: IgG; also called Ab22
B11: ADI-11802 IgG (antibody, V domains shown)
VH: B9 VH with D31G, S54Y, W55G, S59R
VL: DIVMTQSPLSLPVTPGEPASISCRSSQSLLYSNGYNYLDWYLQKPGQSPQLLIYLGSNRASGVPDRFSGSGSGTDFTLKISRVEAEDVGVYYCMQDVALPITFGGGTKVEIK
notes: IgG; also called Ab23
B12: ADI-10161 IgG (antibody, V domains shown)
VH: EVQLVESGGGLVQPGGSLRLSCAASGFTFSSYWMSWVRQAPGKGLEWVANINQDGSEKYYVDSVKGRFTISRDNAKNSLYLQMNSLRAEDTAVYYCAREGGDSWYHAFDIWGQGTMVTVSS
VL: B4 VL with D30S, S53N, A91K, H92L, Y94L
notes: IgG; also called Ab16
B13: ADI-10163 IgG (antibody, V domains shown)
VH: QVQLQESGPGLVKPSQTLSLTCTVSGGSISSGGYYWSWIRQHPGKGLEWIGSIYYSGSTYYNPSLKSRVTISVDTSKNQFSLKLSSVTAADTAVYYCARDRLDYSYNYGMDVWGQGTTVTVSS
VL: B1 VL with Y30S, Y31S, A50G, R54L, D93S, T94A, L96F
notes: IgG; also called Ab17
B14: ADI-10164 IgG (antibody, V domains shown)
VH: QVQLQESGPGLVKPSETLSLTCAVSGYSISSGYYWGWIRQPPGKGLEWIGSIYHSGSTNYNPSLKSRVTISVDTSKNQFSLKLSSVTAADTAVYYCARLPPWFGFSYFDLWGRGTLVTVSS
VL: EIVLTQSPATLSLSPGERATLSCRASQSVSSYLAWYQQKPGQAPRLLIYDASNRATGIPARFSGSGSGTDFTLTISSLEPEDFAVYYCQQVDNYPPTFGGGTKVEIK
notes: IgG; also called Ab18
B15: ADI-10177 IgG (antibody, V domains shown)
VH: EVQLVESGGGLVQPGGSLRLSCAASGFTFSSYWMSWVRQAPGKGLEWVANIKQDGSEKYYVDSVKGRFTISRDNAKNSLYLQMNSLRAEDTAVYYCARPLNAGELDVWGQGTMVTVSS
VL: B4 VL with S10T, V11L, G28S, D30S, A50E, Q55E, D70E, E81D, A91L, H92E
notes: IgG; also called Ab2
B16: ADI-11776 IgG (antibody, V domains shown)
VH: EVQLLESGGGLVQPGGSLRLSCAASGFTFSKYTMSWVRQAPGKGLEWVSAIVGSGESTYFADSVKGRFTISRDNSKNTLYLQMNSLRAEDTAVYYCAREGGPYYDSSGYFVYYGMDVWGQGTTVTVSS
VL: B3 VL with D50K, E92D, S93D, F94L
notes: IgG; also called Ab3; H76
B17: ADI-11807 IgG (antibody, V domains shown)
VH: B15 VH with S30G, N50T, Y59S
VL: DIQMTQSPSTLSASVGDRVTITCRASQSISSWLAWYQQKPGKAPKLLIYEASSLESGVPSRFSGSGSGTEFTLTISSLQPDDFATYYCQQSQSYPPITFGGGTKVEIK
notes: IgG; also called Ab5; I07
B18: ADI-11809 IgG (antibody, V domains shown)
VH: B15 VH with S30P, N50T, Q53R, Y59G
VL: B17 VL
notes: IgG; also called Ab6

These binders were tested against T1, human CD33 extracellular domain (human, UniProt P20138 18-259) (assay: BLI Octet, IgG loaded;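 also: IgGs captured on AHC biosensors, exposed to 100 nM antigen for 3 min association then 3 min dissociation in buffer, kinetics fitted with a 1:1 binding model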).
T1 construct: soluble monomeric ECD; also called human CD33 ECD; hCD33
Method: Briefly, ForteBio affinity measurements were performed by loading IgGs on-line onto AHC sensors. Sensors were equilibrated off-line in assay buffer for 30 min and then monitored on-line for 60 seconds for baseline establishment. Sensors with loaded IgGs were exposed to 100 nM antigen for 3 minutes, and afterwards were transferred to assay buffer for 3 min for off-rate measurement. All kinetics were analyzed using the 1:1 binding model.

Q: For B1, which Kd is on record?
A: Its Kd is 0.81 nM.

Q: What about the koff of the same binder?
A: Its koff is 0.000533 s⁻¹.

Q: And the kon?
A: The kon was 658000 M⁻¹ s⁻¹.

Q: What does the source list for B2?
A: Kd: 1.2 nM; koff: 0.000923 s⁻¹; kon: 770000 M⁻¹ s⁻¹

Q: How did the Kd turn out when B3 was run?
A: The Kd was no more than 0.575 nM.

Q: And the koff?
A: The koff was no more than 0.0002 s⁻¹.

Q: What about the kon of the same binder?
A: The kon was 348000 M⁻¹ s⁻¹.

Q: With B4 as the binder, how does the Kd read?
A: Its Kd is 1.91 nM.

Q: What about the koff of the same binder?
A: Its koff is 0.000315 s⁻¹.

Q: What about the kon of the same binder?
A: Its kon is 166000 M⁻¹ s⁻¹.

Q: How did the Kd turn out when B5 was run?
A: Its Kd is 1.44 nM.

Q: And the koff?
A: The koff was 0.000229 s⁻¹.

Q: And the kon?
A: Its kon is 159000 M⁻¹ s⁻¹.

Q: What does the source list for B6?
A: Kd: 0.393 nM; koff: 0.000243 s⁻¹; kon: 619000 M⁻¹ s⁻¹

Q: What does the source list for B7?
A: Kd: 5.1 nM; koff: 0.00325 s⁻¹; kon: 638000 M⁻¹ s⁻¹

Q: B8 was tested. Which Kd did it give?
A: The Kd was 0.54 nM.

Q: And the koff?
A: Its koff is 0.000376 s⁻¹.

Q: And the kon?
A: Its kon is 696000 M⁻¹ s⁻¹.

Q: Which results are given for B9?
A: Kd: 0.457 nM; koff: 0.0002 s⁻¹; kon: 438000 M⁻¹ s⁻¹

Q: For B10, which Kd is on record?
A: The Kd was 9.7 nM.

Q: With B11 as the binder, how does the Kd read?
A: Its Kd is 0.453 nM.

Q: What about the koff of the same binder?
A: The koff was 0.0002 s⁻¹.

Q: What about the kon of the same binder?
A: Its kon is 441000 M⁻¹ s⁻¹.

Q: How did the Kd turn out when B12 was run?
A: The Kd was 3.7 nM.

Q: And the koff?
A: The koff was 0.00217 s⁻¹.

Q: And the kon?
A: Its kon is 587000 M⁻¹ s⁻¹.

Q: Which Kd does the source give for B13 here?
A: The Kd was 6.8 nM.

Q: For B14, which Kd is on record?
A: The Kd was 4.3 nM.

Q: And the koff?
A: Its koff is 0.00148 s⁻¹.

Q: What about the kon of the same binder?
A: Its kon is 344000 M⁻¹ s⁻¹.

Q: With B15 as the binder, how does the Kd read?
A: The Kd was 3.6 nM.

Q: And the koff?
A: Its koff is 0.00214 s⁻¹.

Q: What about the kon of the same binder?
A: Its kon is 601000 M⁻¹ s⁻¹.

Q: Which Kd does the source give for B16 here?
A: The Kd was 0.294 nM.

Q: And the koff?
A: Its koff is 0.0002 s⁻¹.

Q: And the kon?
A: The kon was 679000 M⁻¹ s⁻¹.

Q: For B17, which Kd is on record?
A: The Kd was 0.307 nM.

Q: And the koff?
A: The koff was 0.0002 s⁻¹.

Q: And the kon?
A: Its kon is 651000 M⁻¹ s⁻¹.

Q: How did the Kd turn out when B18 was run?
A: The Kd was 0.313 nM.

Q: What about the koff of the same binder?
A: Its koff is 0.0002 s⁻¹.

Q: What about the kon of the same binder?
A: The kon was 638000 M⁻¹ s⁻¹.
